Experimental data published in patent US12415847B2, “ApoM-Fc fusion proteins for treating lung diseases” (Children's Medical Center Corporation, priority 2018, dated 2025).

How the values were obtained:
HUVECs = experiment: Trans-endothelial electrical resistance (TEER); assay type: cell-based, human; settings: 4 μg/well, 250 nM S1P, 6 hour time point
Procedure: FIG. 4. Human and Mouse ApoM-Fc-S1P enhanced endothelial Barrier Protection. Human ApoMFc-S1P (4 μg/well, 250 nM S1P), Mouse ApoMFc-S1P (4 μg/well, 250 nM S1P), or BSA-S1P (250 nM S1P; Positive Control) were analyzed using transepithelial/transendothelial electrical resistance (TEER). The results of TEER analysis of HUVECs at the 6 hour time point are shown. BSA-S1P is the well-established activator of the S1PR1 and it was tested whether Human ApoMFc-S1P, Mouse ApoMFc-S1P gave equivalent induction of receptor activation. All results are normalized to individual well baselines (baseline=1), expressed as the mean of triplicate wells, and Standard Deviation (S.D.) is expressed as gray vertical bars over the course of the data set. […]
0.1 ml of Human Umbilical Vascular Endothelial Cells (HUVECS; 200,000 cells/ml in EGM-2 culture medium, Lonza) were seeded into a 96 well electrical conductance chamber (ECIS Cultureware; Applied Biophysics, Inc) pre-coated with 1% Fibronectin resuspended in Saline. After overnight incubation at 37° C./5% CO2, the 96-well plate was placed on the ECIS reader (Applied Biophysics; Ztheta 96-well array station) and baseline resistance was established which represents the quality of Endothelial junction strength or Endothelial barrier function. […]

S1P1 receptor [1] = target: T1, S1P1 receptor (Homo sapiens, UniProt P21453); experiment: Nanobit split luciferase assay, Gi-alpha coupling; assay type: cell-based; settings: transfected 293A cells; 1000 nM-0.3 nM S1P
T1 construct: expressed in transfected cells; host or cells: Human 293A cells, transient PEI transfection
Procedure: (§1) FIGS. 5A-5B. Nanobit analysis of Human ApoMFc-S1P, Mouse ApoMFc-S1P, or BSA-S1P (Positive Control). […] BSA-S1P is the well-established activator of the S1PR1 and it was tested whether Human ApoMFc-S1P, Mouse ApoMFc-S1P gave equivalent induction of receptor activation. Data are the means of triplicate wells with the baseline (pre-stimulation) signal subtracted from the final luciferase signal and graphs are expressed with standard deviation.
(§2) The S1P receptors are members of the G-protein coupled receptor (GPCR) superfamily. Receptor activation is characterized by immediate activation of a G-protein complex (alpha-beta-gamma) that activates multiple intracellular signaling pathways and then secondary activation of coupling to the protein beta-arrestin, which may cause receptor internalization and desensitization as well as activation of other intracellular signaling pathways. […]
(§3) There are two general forms of this assay. […] Upon activation of the GPCR, the G-Protein alpha-beta-gamma complex […] and Luciferase activity may be detected by measuring emitted light in the presence of luciferase substrate (luciferin). […] It is notable that G-Protein assay results in decreased relative fluorescence with increased receptor activation, while the Beta-arrestin coupling assay results in increased relative fluorescence with increased receptor activation. […]
Target sequence in this assay (P21453 whole entry): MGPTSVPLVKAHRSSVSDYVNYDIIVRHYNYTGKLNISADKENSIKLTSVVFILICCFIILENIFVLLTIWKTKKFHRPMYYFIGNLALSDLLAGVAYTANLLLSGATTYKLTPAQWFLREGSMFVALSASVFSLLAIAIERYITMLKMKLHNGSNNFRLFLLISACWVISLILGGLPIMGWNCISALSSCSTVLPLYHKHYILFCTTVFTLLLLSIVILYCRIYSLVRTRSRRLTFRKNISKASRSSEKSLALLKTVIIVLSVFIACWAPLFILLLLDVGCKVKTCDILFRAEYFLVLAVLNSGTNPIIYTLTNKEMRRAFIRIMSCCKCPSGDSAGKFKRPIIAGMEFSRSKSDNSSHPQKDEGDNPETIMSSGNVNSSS

S1P1 receptor [2] = target: T1, S1P1 receptor; experiment: Nanobit split luciferase assay, beta-arrestin coupling; assay type: cell-based; settings: transfected 293A cells; 1000 nM-0.3 nM S1P
Procedure: as §1, §2, §3
Target sequence in this assay (P21453 whole entry): as above
Target sequence in this assay (P49407 whole entry partner): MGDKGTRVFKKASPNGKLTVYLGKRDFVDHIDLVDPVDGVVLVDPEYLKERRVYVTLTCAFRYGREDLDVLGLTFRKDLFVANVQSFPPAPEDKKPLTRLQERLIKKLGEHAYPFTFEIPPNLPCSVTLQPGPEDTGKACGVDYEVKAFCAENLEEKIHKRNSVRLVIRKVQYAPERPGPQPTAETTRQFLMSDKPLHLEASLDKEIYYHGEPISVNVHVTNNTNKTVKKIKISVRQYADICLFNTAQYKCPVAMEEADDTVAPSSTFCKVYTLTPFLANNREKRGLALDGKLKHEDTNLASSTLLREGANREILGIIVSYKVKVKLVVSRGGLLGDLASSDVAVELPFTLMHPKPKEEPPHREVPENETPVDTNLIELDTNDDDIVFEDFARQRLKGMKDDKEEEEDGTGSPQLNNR

[3] = free ApoM not associated with HDL; Faber et al. 2006; cited from earlier work

Row | activation of Gi-alpha coupling to the S1P1 receptor (S1P1 receptor [1]) | activation of beta-arrestin coupling to the S1P1 receptor (S1P1 receptor [2]) | Molecule | endothelial barrier protection (TEER) (HUVECs) | half-life [3]
1 | equivalently activates | equivalently activates | Mouse ApoMFc-S1P: Mouse ApoM-mouse IgG1Fc fusion (mApoM-Fc) loaded with S1P (protein) NQCPEHSQLTALGMDDTETPEPHLGLWYFIAGAAPTTEELATFDPVDNIVFNMAAGSAPRQLQLRATIRTKSGVCVPRKWTYRLTEGKGNMELRTEGRPDMKTDLFSSSCPGGIMLKETGQGYQRFLLYNRSPHPPEKCVEEFKSLTSCLDFKAFLVTPRNQEACPLSSKWISSASSAKTTPPSVYPLAPGSAAQTNSMVTLGCLVKGYFPEPVTVTWNSGSLSSGVHTFPAVLQSDLYTLSSSVTVPSSTWPSETVTCNVAHPASSTKVDKKIVPRDCGCKPCICTVPEVSSVFIFPPKPKDVLTITLTPKVTCVVVDISKDDPEVQFSWFVDDVEVHTAQTQPREEQFNSTFRSVSELPIMHQDWLNGKEFKCRVNSAAFPAPIEKTISKTKGRPKAPQVYTIPPPKEQMAKDKVSLTCMITDFFPEDITVEWQWNGQPAENYKNTQPIMDTDGSYFVYSKLNVQKSNWEAGNTFTCSVLHEGLHNHHTEKSLSHSPGK | enhance endothelial Barrier Protection | –
2 | – | – | Free ApoM: free ApoM that is not associated with HDL; 26-kDa protein (protein, UniProt O95445 1-188, looked up) Apolipoprotein M: MFHQIWAALLYFYGIILNSIYQCPEHSQLTTLGVDGKEFPEVHLGQWYFIAGAAPTKEELATFDPVDNIVFNMAAGSAPMQLHLRATIRMKDGLCVPRKWIYHLTEGSTDLRTEGRPDMKTELFSSSCPGGIMLNETGQGYQRFLLYNRSPHPPEKCVEEFKSLTSCLDSKAFLLTPRNQEACELSNN | – | extremely short
